Results reported in IntAct's records for PubMed 31831856.

B1: Iron-sulfur cluster assembly factor IBA57, mitochondrial (Homo sapiens), Q5T440 (parent)
chain: MATAALLRGATPGRGGPVWRWRLRAAPRCRLAHSSCSPGGDPTAGAAWACFRLDGRTLLRVRGPDAAPFLLGLLTNELPLPSPAAAGAPPAARAGYAHFLNVQGRTLYDVILYGLQEHSEVSGFLLECDSSVQGALQKHLALYRIRRKVTVEPHPELRVWAVLPSSPEACGAASLQERAGAAAILIRDPRTARMGWRLLTQDEGPALVPGGRLGDLWDYHQHRYLQGVPEGVRDLPPGVALPLESNLAFMNGVSFTKGCYIGQELTARTHHMGVIRKRLFPVRFLDPLPTSGITPGATVLTASGQTVGKFRAGQGNVGLALLWSEKIKGPLHIRASEGAQVALAASVPDWWPTVSK
partner: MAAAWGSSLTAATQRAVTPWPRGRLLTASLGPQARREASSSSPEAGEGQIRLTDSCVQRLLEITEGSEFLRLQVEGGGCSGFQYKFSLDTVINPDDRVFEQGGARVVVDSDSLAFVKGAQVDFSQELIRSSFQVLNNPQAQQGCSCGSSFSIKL

Variants of: B1
Details: with isca2_human ISCA2, Q86U28

Row | effect of a mutation on the interaction | Variant
1 | disrupting interaction strength | R146W
